In patent US6645504B1, “Bystander suppression of type I diabetes by oral administration of glucagon” (AutoImmune Inc., priority 1987, dated 2003):

How the values were obtained:
MBP specific T-cells = test: In vitro suppression of proliferative responses by supernatants; format: cell-based, Lewis rats; conditions: supernatants of splenocytes from fed animals stimulated in vitro with MBP; FIG. 1
Protocol: Induction Of Oral Tolerance. Rats were fed 1 mg of MBP dissolved in 1 ml PBS, or PBS alone, by gastric intubation using a 18-gauge stainless steel animal feeding needle (Thomas Scientific, Swedesboro, N.J.). Animals were fed five times at intervals of 2-3 days with the last feeding two days before immunization. The purpose of this was to induce tolerance.
In Vitro Suppression Of Proliferative Responses By Supernatants. Spleen cells were removed 7-14 days after the last feeding and a single cell suspension prepared by pressing the spleens through a stainless steel mesh. For preparation of supernatants, spleen cells at a concentration of 5×10^6 cells/ml were stimulated in vitro with MBP (50 μg/ml) in 10 ml of proliferation medium. Proliferation medium consisted of RPMI 1640 (GIBCO, Grand Island, N.Y.) supplemented with 2×10^−5 M 2-mercaptoethanol, 1% sodium pyruvate, 1% penicillin and streptomycin, 1% glutamine, 1% HEPES buffer, 1% nonessential amino acids and 1% autologous serum. […] Cultures were harvested onto fiberglass filters using a multiharvester and counted using standard liquid scintillation techniques.
Purification Of T-Cell Subsets. […] The quantity of magnetic beads used was calculated as being 10 times the estimated target cell population. […]

OVA line = test: Transwell culture suppression of OVA T cell line; format: cell-based, Lewis rats
From the text: Transwell Cultures. A dual chamber transwell culture system (Costar, Cambridge, Mass.), which is 24.5 mm in diameter and consists of two compartments separated by a semi-permeable polycarbonate membrane, with a pore size of 0.4 μm, was used. The two chambers are 1 mm apart, allowing cells to be coin-cubated in close proximity without direct cell-to-cell contact. To measure in vitro suppression of proliferative responses in transwell cultures, 5×10^4 MBP- or OVA-specific line cells, raised and maintained as previously described (Ben-Nun, A. et al., Eur. J. Immunol. 11:195, 1981), were cultured with 10^6 irradiated (2,500 rad) thymocytes, in 600 μl of proliferation media in the lower well. Spleen cells from orally tolerized rats or controls (fed BSA) were added to the upper well (5×10^5 cells in 200 μl). Spleen cells were removed 7-14 days after the last feeding, and a single cell suspension was prepared by pressing the spleens through a stainless steel mesh. MBP and OVA (50 μg/ml) were added in a volume of 20 μl. […] In some experiments, modulator cells were added in the lower well together with responder cells, and in these instances modulator cells were irradiated (1,250 rad) immediately before being placed in culture. Proliferation media consisted of RPMI 1640 (Gibco Laboratories, Grand Island, N.Y.) supplemented with […] 2-mercaptoethanol, 1% sodium pyruvate, 1% penicillin and streptomycin, 1% glutamine, 1% HEPES buffer, 1% nonessential amino acids, and 1% autologous serum. Each transwell was performed in quadruplicate. The transwells were incubated at 37° C. in a humidified 6% CO2 and 94% air atmosphere for 72 hours. After 54 hours of culture, each lower well was pulsed with 4 μCi of [^3H]thymidine and at 72 hours split and reseeded to three wells in a round-bottomed 96-well plate (Costar) for harvesting onto fiberglass filters and counting using standard liquid scintillation techniques. Percent suppression =100×(1−Δ A cpm responders cultured with modulators/Δ cpm of responders).

TGF-β = test: Measurement of TGF-β activity in serum-free culture supernatants of spleen cells; format: cell-based, Lewis rats
Protocol: Measurement Of TGF-β Activity In Serum-Free Culture Supernatants. Serum free culture supernatants were collected as previously described (Kehri, et al. J. Exp. Med. 163: 1037-1050, 1986; Wahl, et al. J. […] Thereafter cells were washed three times and resuspended in serum-free medium for the remainder of the 72 hour culture, collected, then frozen until assayed. Determination of TGF-β content and isoform type in supernatants was performed using a mink lung epithelial cell line (American Type Culture Collection, Bethesda, Md. #CCL-64) according to Danielpour et al. (supra), and confirmed by a Sandwich Enzyme Linked Immunosorbent Assay (SELISA) assay as previously described (Danielpour et al. Growth Factors 2: 61-71,1989). The percent active TGF-β was determined by assay without prior acid activation of the samples.

DTH responses = DTH responses in animals fed MBP or MBP peptides; format: in vivo, Lewis rats; conditions: FIG. 15
From the text: Guinea pig MBP peptide 131-150 was ineffective in this case. Peptides were also fed with STI which prevents their breakdown by gastric juices and enhances their biological effect. DTH responses to whole MBP were suppressed by feeding MBP or any one of the MBP-peptides 21-40, or 71-90.

[1] = MBP-fed modulators + MBP in upper well
[2] = MBP-fed modulators in upper well without MBP
[3] = spleen cells of MBP-fed animals stimulated with concanavalin-A

B1: MBP: Guinea pig myelin basic protein purified from brain tissue (protein, UniProt P25188 1-167, looked up)
Myelin basic protein: ASQKRPSQRHGSKYLATASTMDHARHGFLPRHRDTGILDSIGRFFGSDRAAPKRGSGKDSHHAARTTHYGSLPQKSQRSQDENPVVHFFKNIVTPRTPPPSQGKGRGLSLSRFSWGAEGQKPGFGYGGRADYKSKGFKGAHDAQGTLSKIFKLGGRDSRSGSPMARR
With B1 as the molecule, how does the “proliferation of the MBP line after addition of supernatants” value (MBP specific T-cells) read?
Its value is “reduction in the proliferation of the MBP line”.

What about the “Percent Suppression” value (OVA line; [1]) of the same molecule?
The value was 51%.

What about the Δ cpm (OVA line; [1]) of the same molecule?
Its Δ cpm is 30,974 ± 3,450 cpm.

What about the “Percent Suppression” value (OVA line; [2]) of the same molecule?
Its value is −5%.

What about the Δ cpm (OVA line; [2]) of the same molecule?
Its Δ cpm is 65,868 ± 3,989 cpm.

What about the “active TGF-β” value (TGF-β; [3]) of the same molecule?
The value was “No active TGF-β was observed”.

What about the “latent TGF-β” value (TGF-β; [3]) of the same molecule?
The value was 2.1 ± 0.45 ng/mL.

What about the “TGF-β in the active form” value (TGF-β; spleen cells of fed animals stimulated in vitro with the fed antigen) of the same molecule?
Its value is 68±9%.

What about the “amount of TGF-β” value (TGF-β; spleen cells of fed animals stimulated in vitro with the fed antigen, serum-free) of the same molecule?
The value was 6.8 ± 1.7 ng/mL.

What about the “DTH responses to guinea pig MBP peptide 71-90” value (DTH responses) of the same molecule?
The value was “suppressed”.

What about the “DTH responses to whole MBP” value (DTH responses) of the same molecule?
The value was “suppressed”.
